These results are taken from the nanobody polyreactivity screen of Harvey et al. (2022).

The nature of the series: yeast display, Sf9 membrane polyspecificity reagent, FACS + sequencing; frameworks hold sequencing errors. Put shortly:
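A synthetic nanobody library was expressed on Saccharomyces cerevisiae BJ5465 by galactose induction for 36–48 hours. The library was stained for 1 hour at 4 °C with 10% biotinylated, detergent-solubilized Sf9 membrane reagent and enriched with streptavidin microbeads before FACS. Low and high (top ~1%) gates were set on anti-HA fluorescence for expression and streptavidin fluorescence for reagent binding, and each polyreactivity label reflects the gate of origin.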
Take “QVQLVESGGGLVQAGGSLRLSCAASGFTYYHNVMGWYRQAPGKERELVAAISSGGDTTYYADSVKGRFTISRDNAKNTVSLQKNSLKPEDTAVYYCNADRQIGRYYHFDYWGQGTQVSVSS”: the “polyreactivity (PSR sort gate)” value was “high polyreactivity”. Consider “QVQLVESGGGLVQAGGSLRLSCAASGFVYYVMGWYRQAPGKERELVAAISKGGGRTYYADSVKGRFTISRDNAKNTVYLQMNSLKPEDTAVYYCNADGGLPKYDYWGQGTQVTVSS”, for which the “polyreactivity (PSR sort gate)” value is reported as “high polyreactivity”.

As for “QVQLVESGGGLVQAGGSLRLSCAASGFYNTMGWYRQAPGKERELVAAISTGGITNYADSVKGRFTISRDNSKNTFYFQMKSLIPEDTAVYYCAADGYSTVSSTYDYWGQGTQVTVSS”, the “polyreactivity (PSR sort gate)” value is “low polyreactivity”. For the sequence “QVQLVESGGGLVQAGGSLRLSCAASGGIFAANAMGWYRPAPGKERELVAAISRSGGRTYYADSVKGRFTISRDNAKNTVYLQMNSLKPEDTAVYYCAATYQASNAWYDYWGQGTQVTVSS”, the “polyreactivity (PSR sort gate)” value is “high polyreactivity”. Turning to “QVQLVESGGGLVQAGGSLRLSCAASGGIFAPYAMGWYRQAPGKERELVADITSEGGSTYYADSVKGRFTISRDIEKNTVYLQMNSLKPEDTAVYYCAAEQRYCWWGHPGDYWGKGTQVTVSS”, the “polyreactivity (PSR sort gate)” value was “low polyreactivity”. Turning to “QVQLVESGGGLVQAGGSLRLSCAASGGIFAVYAMGWYRQAPGKERELVAAITWRGGSTRYADSVKGRFTISRDNAKNTVHLQMNSLIPEDTAVYYCAVRSTGYPSRYYYWGQGTQVTVSS”, the “polyreactivity (PSR sort gate)” value is recorded as “high polyreactivity”.

On to “QVQLVESGGGLVQAGGSLRLSCAASGGIFDRYAMGWYRQAPGKERELVAAITSGGSTNYADSVKGRFTISRDNAKNTVYLQMNSLKPEDTAVYYCNADLGILSGVAEGPTFREYDYWGQGTQVTVSS”, for which the “polyreactivity (PSR sort gate)” value is reported as “low polyreactivity”. As for “QVQLVESGGGLVQAGGSLRLSCAASGGIFDSYAMGWYRQAPGKERELVADITWSGGSTYYADSVKGSFTISRDNAKNTVYLQMNSLKPEDTAVYLCAAVWNSPYDYWGQGTLVTVSS”, the “polyreactivity (PSR sort gate)” value is “low polyreactivity”. To “QVQLVESGGGLVQAGGSLRLSCAASGGIFDTNAMGWSRQAPGKERELVAAIRGSGGTYYADSVKGRFTISRDNAKNTVYLQMNSLKPEDTAVYYCATRTYRVLAGSAWYHYNYWGQGTQVTVSS” belongs “high polyreactivity”; to “QVQLVESGGGLVQAGGSLRLSCAASGGIFDTYAMGWYRQEPGKERELVAAISRRGGNTYYADSVKGRFTISRDNAKNTVYLQMNSLKPEDTAVYYCAAYYHGRMDYWGQGTQVTVSS”, “high polyreactivity”; to “QVQLVESGGGLVQAGGSLRLSCAASGGIFEAYVMGWYRHAPGKERELVAAISFRGGSTYYADSVKGRFTISRDNAKNTVYLQMNSLKPEDTAVYYCAADYRHQGYDYWGQGTQVTVSS”, “low polyreactivity”. In the case of “QVQLVESGGGLVQAGGSLRLSCAASGGIFFLYAMGWYRQAPGKETELVAAIRQDGGSTYYADSVKGRFTISRDNAKNTVYLQMNSLKPEDTAVYYCNAGYVKTGLEYYYWGQGPQVTVSS”, the “polyreactivity (PSR sort gate)” value is reported as “low polyreactivity”.

Consider “QVQLVESGGGLVQAGGSLRLSCAASGGIFFSYAMGWYRQAPGKERELVAAIRTNGGTTYYADSVKGRFTISRDNAKNTVYLQMNSLKPEDTAVYYCAALPGGYYDRGEYDYWGQGTQVTVSS”, for which the “polyreactivity (PSR sort gate)” value is recorded as “low polyreactivity”.

For the sequence “QVQLVESGGGLVQAGGSLRLSCAASGGIFGINAMGWYRQAPGKEREFVAAITASGGTTYYADSVKGRFTISRDNAKNTVYLQMNSLKPEDTAVYYCAKRYRSYDYVWYEYWGQGTQVTVSS”, the “polyreactivity (PSR sort gate)” value was “high polyreactivity”. To “QVQLVESGGGLVQAGGSLRLSCAASGGIFGRNAMGWYRQAPGKERELVASISKSGGSTYYADSVKGRFTISRDNAKNTVYLQMKSLKPEDSAVYYCAARYSYFNWDNYYWGQGTLVTVSS” belongs “high polyreactivity”. As to “QVQLVESGGGLVQAGGSLRLSCAASGGIFGRYAMGWYRQAPGKERELVAGISYSGGSTYYADSVKGRFTISRDNAKNSVYLQMNSLKPEDTAVYYCATGGYVWYRSVNVWTRMDYWGQGTQVTVSS”, the “polyreactivity (PSR sort gate)” value is “high polyreactivity”. The value for “QVQLVESGGGLVQAGGSLRLSCAASGGIFGRYAMGWYRQAPGKERELVAGLSYSGGSTYYADSVKGRFTISRDNEKNTVYLQMTSLKAEDTAVYYCAADTRRTYENYYWGQGTQVTVSS” was “high polyreactivity”; that for “QVQLVESGGGLVQAGGSLRLSCAASGGIFGTYTMGWYRQAPGKERELVAAIRSSSGRTYYADSVKGRFTISRDTAKNTVYLQMNSLKPEDTAVYYCNRAYTIQDDYWGQGTQVTVSS” was “high polyreactivity”; that for “QVQLVESGGGLVQAGGSLRLSCAASGGIFGVYAMGWYRQAPGKERELVAAISQSDTSTYYADSVKGRFTISRDNAKNTVYLQMNSLKPEDTAVYYCAAEYYLDYYTWFDYWGQGTQVTVSS” was “high polyreactivity”. Regarding “QVQLVESGGGLVQAGGSLRLSCAASGGIFGWYAMGWYRQAPGKERELVAAITGGGSTYYADSVKGRFTISRDNAKNTVYLQMNSLKPEDTAVYYCNADYHTEEDYWGHGTQVTVSS”, the “polyreactivity (PSR sort gate)” value is “low polyreactivity”. On to “QVQLVESGGGLVQAGGSLRLSCAASGGIFGYYAMAWYRQAPGKEREFVAAITLSGGRSYYADSVKGRFTISRDNAKNTVYLQMNSLKPEDTAVYYCNAYPYYLVRNMDSWGQGTQVTVTS”, for which the “polyreactivity (PSR sort gate)” value is listed as “high polyreactivity”. For the sequence “QVQLVESGGGLVQAGGSLRLSCAASGGIFGYYAMGWYRQAPGKEREFVAAITARGGRTYYADSVKGRFTISRDNAKNTVYLQMNSLKPEDTAVYYCAAYSPVWGRYYHRVERDYWGQGTQVTVSS”, the “polyreactivity (PSR sort gate)” value is “high polyreactivity”. As to “QVQLVESGGGLVQAGGSLRLSCAASGGIFIANAMGWYRQAPGKERELVAAISSSGGSTYYADSVKGRFTISRDNAKNTVYLQMNSLKPEDTAVYYCNKLLTRSYRTYGRYGYWGQGTQVTVSS”, the “polyreactivity (PSR sort gate)” value is on record as “high polyreactivity”. As to “QVQLVESGGGLVQAGGSLRLSCAASGGIFKKYAMGWYRQAPGKERELVAVITSGGRTNYADSVKGRFTISRDNAKNTVYLLMNSLKPEDTAVYYCAAVYVTGSYRYGYWGQGSQVTVSS”, the “polyreactivity (PSR sort gate)” value is listed as “high polyreactivity”. With “QVQLVESGGGLVQAGGSLRLSCAASGGIFLGNAMAWYRQATGKETELVASITRGGDTSYADSVKARFTFSRDNAKNTVYLQMNSLKPEDTAVYYCNADYYSVVEYDYWGQGTQVTVSS”, the “polyreactivity (PSR sort gate)” value is reported as “low polyreactivity”. To “QVQLVESGGGLVQAGGSLRLSCAASGGIFLPNAMGWYRQAPGKERELVAAISTGGSTNYADSVKGRFTISRDNAKNTVYLQMNSLKPEDTAVYYCAATPYNYVGFSRGGDYWGQGTQVTVSS” belongs “low polyreactivity”. On to “QVQLVESGGGLVQAGGSLRLSCAASGGIFLYNSMGWYRQAPGKERELVADISSSGITYYADSVKGRFTISRDNAKNTVYLQMNSLNPEDTAVYYCAADSTTRPGLRVYDDYDYWGQGTQVTVSS”, for which the “polyreactivity (PSR sort gate)” value is given as “low polyreactivity”. For “QVQLVESGGGLVQAGGSLRLSCAASGGIFPDYAMGSYRQAPGKERELVAVISDSGGSTYYADSVKGRFTISRDNAKNTVYLQMNSLKPEDTAVYYCAAETEWYYGYYEYWGQGTQVTVSS”, the “polyreactivity (PSR sort gate)” value is reported as “high polyreactivity”. “QVQLVESGGGLVQAGGSLRLSCAASGGIFPDYAMGWYRQAPGKERELVAVISDSGGSTYYADSVKGRFTISRDNAKNTVYLQMNSLKPEDTAVYYCSAETEWYYGYYEYWGQGTQVTVSS”: the “polyreactivity (PSR sort gate)” value was “high polyreactivity”. Take “QVQLVESGGGLVQAGGSLRLSCAASGGIFRNYAMGWYRQAPGKERELVARISSAGSTNYADSVKGRFTNSRDNAKNTVYLLMNSLKPEDTAVYYCAKGWRSWAEEGHDYWGQGTQVTVSS”: the “polyreactivity (PSR sort gate)” value was “low polyreactivity”. For the sequence “QVQLVESGGGLVQAGGSLRLSCAASGGIFRPYAMGWYRQAPGKERELVAAITYNGGSTYYADSVKGRFTISRDNAKNTVYLQMNSLKPEDTAVYYCAAVSYSGPYAYEYWGQGTQVTVSS”, the “polyreactivity (PSR sort gate)” value is “high polyreactivity”. For the sequence “QVQLVESGGGLVQAGGSLRLSCAASGGIFRVYAMGWYRQAPGNERELVAAINGRGTSTYYADSVKGRFTISRDNAKNTVYLQMNSLKPEDTAVYYCAASGQYHYDYWGQGTQVTVSS”, the “polyreactivity (PSR sort gate)” value was “high polyreactivity”.

Consider “QVQLVESGGGLVQAGGSLRLSCAASGGIFRYYAMGWYRQAPAKERELVAAISSGGRTYYADSVKGRFTISRDNAKTTVYLQMNSLKPEDTAVYYCNADRYWGYDYWGQGTQVTVSS”, for which the “polyreactivity (PSR sort gate)” value was “high polyreactivity”. As to “QVQLVESGGGLVQAGGSLRLSCAASGGIFSKNVMGWYRQAPGKERELVAAISRGGTTSYADSVKGRFTISRDNAKNTVYLQMNSLKPEDTAVYFCAAKYWWYPYFTVDYDYWGQGTQVTVSS”, the “polyreactivity (PSR sort gate)” value was “high polyreactivity”. For the sequence “QVQLVESGGGLVQAGGSLRLSCAASGGIFSVYAMGWYRQAPGKEREFVAAISKSGGRTYYADSVKGRFTISRDNAKNTVYLQMNSLKPEDTAVYYWNVVRRSPGDYSYYYWGQGTQVTVSS”, the “polyreactivity (PSR sort gate)” value was “low polyreactivity”. To “QVQLVESGGGLVQAGGSLRLSCAASGGIFSYAMGWYRQAPGKERELVAAISSGGSTYYADSVKGRFTISRDNAKNTVYLQMNSLKPEDTAVYYCAADGNGVDYDYWGQGTQVTVSS” belongs “low polyreactivity”. Regarding “QVQLVESGGGLVQAGGSLRLSCAASGGIFTFNDMGWYRQAPGKERELVAAISRRGGSTYYADSVKGRFTISRDNAKNTVFLQMNSLKPEDTAVYYCAASSRRQRSEPYYYWGQGTQVTVSS”, the “polyreactivity (PSR sort gate)” value is listed as “high polyreactivity”. In the case of “QVQLVESGGGLVQAGGSLRLSCAASGGIFTKNAMGWYRQAPGKERELVAGISRTGGNTYYADSVKGRFTISRDNAKYTVYLQMNSLIPEDTAVYYCNALYGGPHRLRYDYWGQGTQVTVSS”, the “polyreactivity (PSR sort gate)” value is on record as “low polyreactivity”. As to “QVQLVESGGGLVQAGGSLRLSCAASGGIFVANAMGWYRQAPGKERELVAAISRSGGSTYYADSVKGRFTISRDNAKNTVYLQMKSLKPEDTAVYYCAAKSRRQFTVGLTSDYRGQGTQVTVSS”, the “polyreactivity (PSR sort gate)” value is listed as “high polyreactivity”. Consider “QVQLVESGGGLVQAGGSLRLSCAASGGIFVGNAMGWYRQAPGKERELVAAITYRGGRTYYADSVKGRFTISRDNAKNTVYLQMNSLKPEDTAVYYCNAYKQGGRSKYNYWGQGTQVTVSS”, for which the “polyreactivity (PSR sort gate)” value is “high polyreactivity”.

In the case of “QVQLVESGGGLVQAGGSLRLSCAASGGIFVGYAMGWYRQAPGKERELVAAISSGGNTYYADSVKGRFTISRDNAKNTVYLQMNSLKPEDTAVYYCAAVRQYQGYRYDYWGQGTQVTVSS”, the “polyreactivity (PSR sort gate)” value is “high polyreactivity”.
